Test results as given in publication PMC6193965.

Biological target: T1, mouse MILL2 extracellular domain (heavy chain) (mouse)
T1 sequence (Q8HWE5 whole entry, looked up): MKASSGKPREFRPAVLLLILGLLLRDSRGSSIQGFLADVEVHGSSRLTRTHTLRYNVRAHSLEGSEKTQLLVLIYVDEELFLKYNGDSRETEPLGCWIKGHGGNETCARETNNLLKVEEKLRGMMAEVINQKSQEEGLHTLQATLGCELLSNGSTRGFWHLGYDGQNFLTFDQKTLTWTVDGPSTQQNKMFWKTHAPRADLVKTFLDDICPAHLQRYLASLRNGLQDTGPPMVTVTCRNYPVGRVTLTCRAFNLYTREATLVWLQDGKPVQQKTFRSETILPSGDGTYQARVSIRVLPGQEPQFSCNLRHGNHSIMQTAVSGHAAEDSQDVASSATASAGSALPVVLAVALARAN
Test: SEC; MILL2 refolded by rapid dilution with 10 μM refolded β2m; complex purified on Superdex 75 and then by cation exchange (RESOURCE S); stoichiometry of the purified complex (Supplementary Fig. 1c)

stoichiometry N: 1
Substance: mouse β2-microglobulin (from UniProt P01887 21-119) (natural protein)
